Laboratory results taken from patent publication US20120003299A1 (KYOTO UNIVERSITY, published 2012).

Assays:
recombinant human Hsp90 [1] = target: T1, recombinant human Hsp90 (human, UniProt P07900 1-732); assay: SPR competition: Hsp90 without peptide (0 uM, reference) over immobilized Hop TPR2A
T1 construct: The tag is placed first here only because pDEST17 is named; also called heat shock protein 90; not shown: histidine tag from E. coli expression vector pDEST17-Hsp90

recombinant human Hsp90 [2] = target: T1, recombinant human Hsp90; assay: SPR competition: Hsp90 pre-mixed with 1.411 uM peptide, injected over immobilized Hop TPR2A
recombinant human Hsp90 [3] = target: T1, recombinant human Hsp90; assay: SPR competition: Hsp90 pre-mixed with 14.11 uM peptide, injected over immobilized Hop TPR2A
recombinant human Hsp90 [4] = target: T1, recombinant human Hsp90; assay: SPR competition: Hsp90 pre-mixed with 141.1 uM peptide, injected over immobilized Hop TPR2A
recombinant human Hsp90 [5] = target: T1, recombinant human Hsp90; assay: SPR competition: Hsp90 pre-mixed with 282.2 uM peptide, injected over immobilized Hop TPR2A
recombinant human Hsp90 [6] = target: T1, recombinant human Hsp90; assay: SPR competition: Hsp90 pre-mixed with 705.5 uM peptide, injected over immobilized Hop TPR2A

Binder | Binding of Hsp90 (%) (recombinant human Hsp90 [1]) | Binding of Hsp90 (%) (recombinant human Hsp90 [2]) | Binding of Hsp90 (%) (recombinant human Hsp90 [3]) | Binding of Hsp90 (%) (recombinant human Hsp90 [4]) | Binding of Hsp90 (%) (recombinant human Hsp90 [5]) | Binding of Hsp90 (%) (recombinant human Hsp90 [6])
RKFSAAIGYNKY (Control peptide) [TPR scramble peptide] | 100% | 100% | 100% | 100% | 90.7% | 88.9%
KAYARIGNSYFK [TPR peptide (KAYARIGNSYFK)] | 100% | 88.2% | 84.6% | 72.3% | 29.8% | 0%
